The values that follow are results of earlier work, collected in PMC10474108.

In the series the target is tau (full-length, nonphosphorylated) (Homo sapiens) (UniProt P10636).
Chain of UniProt P10636 (P10636 2-758): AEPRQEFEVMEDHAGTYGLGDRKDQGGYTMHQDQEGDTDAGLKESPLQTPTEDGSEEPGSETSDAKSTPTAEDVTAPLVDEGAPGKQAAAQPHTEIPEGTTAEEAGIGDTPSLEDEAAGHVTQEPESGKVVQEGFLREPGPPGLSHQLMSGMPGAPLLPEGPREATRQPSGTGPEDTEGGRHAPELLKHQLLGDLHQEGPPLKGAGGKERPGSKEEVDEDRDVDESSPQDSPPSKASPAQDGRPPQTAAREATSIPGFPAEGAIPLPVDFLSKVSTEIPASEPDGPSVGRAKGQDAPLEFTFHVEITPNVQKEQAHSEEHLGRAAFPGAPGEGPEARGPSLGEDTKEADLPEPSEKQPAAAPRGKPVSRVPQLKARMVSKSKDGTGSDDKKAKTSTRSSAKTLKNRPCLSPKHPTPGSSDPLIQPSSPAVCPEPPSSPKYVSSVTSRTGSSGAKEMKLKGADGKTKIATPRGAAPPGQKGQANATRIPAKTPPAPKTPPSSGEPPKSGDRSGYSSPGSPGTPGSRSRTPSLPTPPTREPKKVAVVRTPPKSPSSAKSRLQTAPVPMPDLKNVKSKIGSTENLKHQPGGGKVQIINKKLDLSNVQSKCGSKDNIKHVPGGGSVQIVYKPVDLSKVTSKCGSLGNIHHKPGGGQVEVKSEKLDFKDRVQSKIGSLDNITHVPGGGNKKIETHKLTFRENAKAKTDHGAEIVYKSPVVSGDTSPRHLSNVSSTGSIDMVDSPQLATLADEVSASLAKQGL

LRP1 (from UniProt Q07954): the Kd is 60 nM.

Broadly, the Kd is the free concentration of one partner at which half of the binding sites on the other are occupied at equilibrium, for simple one-to-one binding.
